This sample holds only a part of the variants without activity.
B1: TPR 5TU (parent)
chain: GGAUCUUCUCGAUCUAACAAAAAAGACAAAUCUGCCACAAAGCUUGAGAGCAUCUUCGGAUGCAGAGGCGGCAGCCUUCGGUGGCGCGAUAGCGCCAACGUUCUCAACUAUGACACGCAAAACGCGUGCUCCGUUGAAUGGAGUUUAUCAUG

Variants of: B1
Assay: polymerase ribozyme fitness, log enrichment relative to wild type (log ratio); higher = more active; in vitro selection for triplet polymerase activity
In short: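 Fitness measures genotype enrichment against wild-type enrichment on a logarithmic scale, with inverse-variance-weighted averaging of replicates. The logarithm is base 2, and genotypes were kept only with ≥10 input reads and ≥1 read per output in Illumina sequencing. The sequenced libraries came from one triplicate in vitro selection round, including frozen incubation at −7 °C, of PCR-built, transcribed mutant libraries of each subunit of a heterodimeric triplet polymerase ribozyme.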

Point of comparison: GGAUCUUCCCGAUCUAACAAAAAAGACAAAUCUGCCACAAAGCUUGAGAGCAUCUUCGGAUGCAGAGGCGGCAGCCUUCGGUGGCGCGAUAGCGCCAACGUUCUCAACUAUGACACGCAAAACGCGUGCUCCGUUGAAUGGAGUUUAUCAUG [U9C], “polymerase ribozyme fitness (log ratio)” value -1.27. Against it:
- GGAUCUUCACGAUCCAACAAAAAAGACAAAUCUGCCACAAAGCUUGAAACCAUCUUCGGAUGCAGAGGCGGCAGCCUUCGGUGGCGCGAUAGCGCAAACGUUCUCAACUAUGACACGCAAAACGCGUGCUCCCUUGAAUGGAGUUUAUCAUG [U9A U15C G48A G50C C96A G133C] — lower, ≤ -4.2
- GGAUCUUCCCGAUCUUACUAAAAAGACAAAACUGUCACAAAGCUUGAGUGCAUCUUCGGAUGCAGAGGCGGCAGCCUUCGGUGGCGCGAUAGCGCCAACGUUCUCAACUAUGACACGCAAAACGCGUGCUCCGUUGAAUGGAGUUUAUCAUG [U9C A16U A19U U31A C35U A49U] — lower, ≤ -4.2
- GGAUCUUCACGAUCUAACAAAAAAGACAAAGCUGCCACAAAGCUUGAGAGCAUCUUCUGAUGCAGAGGCGGCUGCCUUCGGUGGCGCGAUAGCGCCAACGUUCUCAACUAUGACACGCAAAAUGCGUGCUCCGUAGAAUGGAGUUUAUCAUG [U9A U31G G58U A73U C123U U135A] — lower, ≤ -4.2
- GGAUCUUCACGAUCUAACAAAAAAGACAAAUCUGCCACAAAGAUUGAGAGCAUCUUCGGAUGCAGAGGCGGCAGCCUUCGGUGGCGCGAUAGCGCCAACGUUCUCAACUAUGACACGCAAAACGCGUGCUCCGUUGAAUGGAGUUUUUCAGG [U9A C43A A147U U151G] — lower, ≤ -4.2
- GGAUCUUCACGAUCUAACAAAAAAGACAAAUCUGCCACAAAGCUUGAGAGCAUCUUCGGAUGCAGAGGCGGCAGCCUUCGGUGGCGCGAUAGCGCCAACGUUCUCAACUAUGACACGCAAAACGCGUCCUCCGUUGAAAGGAGUUUAUCAUG [U9A G128C U139A] — lower, ≤ -4.2
- GGAUCUUCACGAUCAAACAAAAAAGACAAAUCUGCCACAAAGCUUGAGAGCAUCUUCGGAUGCAGAGGCGGCAGCCUUCGGUGGCGCGAUAGUGCCAACGUUGUCAACUAUGACACGCAAAACGCGUGCUCCGUUGAAUGGAGUUUAUCAUG [U9A U15A C93U C103G] — lower, ≤ -4.2
- GGAUCUUCCCGAUCUUACAAGAAAGACAAAUCUGCCACAAAGCUUGAGAGCAUCUUCGGAUGCAGAGGCCGCAGCCUUCGGUGGCGCGAUAUCGCCAACGUUCUCAACUAUGACACGCAAAACGCGUGCUCCGUUGAAUGGAUUGUAUCAUG [U9C A16U A21G G70C G92U G143U U145G] — lower, ≤ -4.2
- GGAUCUUCACGAUCUAACAAAAAAGACAAAUCUGCCACAAAGCUUGAGAGCAUCUUCGACUGCAGAGGCGGCAGCCUUCGGUGGCGCGAUAGUGCCAACGUUCUCAACUAUGACACGCAAAACGCGUGCUCCGUUGAAUGGAGUUUAUCAUG [U9A G59A A60C C93U] — lower, ≤ -4.2
- GGAUCUUCACGAUCUAACAAAAAAGACAAAUCUACCACAAAGCUUGAGAGCAUCUUAGGAUGCAGAGGCGGCAGCCUUCGGUGGAGCGAUUGCGCCAACGUUCUCAACUAUGACACGCAAAACGCGUGCUCCGUUGAAUGGAGUUUAUCAUG [U9A G34A C57A C85A A91U] — lower, ≤ -4.2
- GGAUCUUCCCGAUCUAUCAAAAAAGACAAAUCUGCCACAAAGCUUGAGAGCAUCUUCGGAUGCAGAGGCGGCAGCCUUCGGUGGCGCGGUAGCGCCAACGUUCUCAACUAUGACACGCAAAGCGCGUGCUCCGUUGAAUGGAGUUUAUCAUG [U9C A17U A89G A122G] — lower, ≤ -4.2
- GGAUCUUCCCGUUCUAACAAAAAAGAGAAAUCUGCCACAAAGCUUGAAAGCAUCUUCGGAUGCAGAGGCGGCAACCUUCGGUGGCGCAAUAGCGCCAACGUUCUCAACUAUGACACGCAAAACGCGUGCUCCGUUGAAUGGAGUUUAUCAUG [U9C A12U C27G G48A G74A G88A] — lower, ≤ -4.2
- GGAUCUUCCCGAUCUAACAAUAAAGACAAAUCUGCCACAAAGCUUGAAAGCAUCUUCGGAUGCAGAGGCGGCAGCCUUCGGUGGCGCGAUUGCGCCAAUGUUCUCAACUAUGACACGCAAAACGCGUGCUCCGUUGAAUGGAGUUUAUCAUG [U9C A21U G48A A91U C99U] — lower, ≤ -4.2
- GGAUCUUCACGAUCUAACAAAAAAGACAAAUCUGCCACAAAGCUUGAGAGCAUCUUGGGAUGCAGAGGCGGCAGCCUUCGGUGUCGCGAUAGCGCCAACGUUCUCAACUAUGACACGCAAAACGCGUGCUCCGUUGAAUGGAGUUUAUCAUG [U9A C57G G84U] — lower, ≤ -4.2
- GGAUCUUCACGAUCUAACAAAAAAGACAAAUCUGCCACAAAGCUUGAGAGCAUCUUCGGAUGUAGAGGUGGCAGCUUUCGGUGGCGCGAUAGAGCCAACGUUCUCAACUAUGUCACGCAAAACGCGUGCUCCGUUCAAUGGAGUUUAUCAUG [U9A C63U C69U C76U C93A A113U G136C] — lower, ≤ -4.2
- GGAUCUUCACGAUCUAACAAAAAAGACAAAUCUGCCACAAAGCUUGAGAGCAUCUUCGGAUGCAGAGGCGGCAGCCUUCGGUGGCACGAUAGUGCCAACGUUCUCAACUAUGACACGCAAAACGCGUGCUCCGUUGAAUGCAGUUUAUCAUG [U9A G86A C93U G141C] — lower, ≤ -4.2
- GGAUCUUCCCGAUCUAUCAAAAAAGACAAGUCUGCCACAAACCUUGAGAGAAUCUUCGGAUGCAGAGGCGGCAGCCUUCGGUGGCGUGAUAGCGCCAACGUUCUCAACUAUGACACGCAAAACGCGUGCUCCGUUGAAUGGAGUUUAUCAUG [U9C A17U A30G G42C C51A C87U] — lower, ≤ -4.2
- GGAUCUUCACGAUCUAACAAAAAAGACAAAUCUGCCACAAAGCUUGAGAGCAUCUUCGGAUGCAGAGGCGGCAGCUUUCGGUGGUGCGAUAGCGCCAACGUUCUCAACUAUGACACGCAAAACGCGUGCUCUCUUGAAUGGAGUUUAUCAUG [U9A C76U C85U C132U G133C] — lower, ≤ -4.2
- GGAUCUUCACGAUCUAACAAAAAAGACAAAUCUGCCACAAAGCUUGAGAGCAUCAUCGGAUGCAGAGGCGGCAGCCUUCGGUGGUGCGAUAGCACCAACGUUCUCAACUAUGAUACGCAAAACGCGUGCUCCGUUGAAUCGAGUUUAUCAUG [U9A U55A C85U G94A C114U G140C] — lower, ≤ -4.2

From the RNAGym collection of RNA variant scans (doi:10.1073/pnas.2313332121)
